B1: Transcription factor 12 (Homo sapiens), Q99081 (parent)
chain: MNPQQQRMAAIGTDKELSDLLDFSAMFSPPVNSGKTRPTTLGSSQFSGSGIDERGGTTSWGTSGQPSPSYDSSRGFTDSPHYSDHLNDSRLGAHEGLSPTPFMNSNLMGKTSERGSFSLYSRDTGLPGCQSSLLRQDLGLGSPAQLSSSGKPGTAYYSFSATSSRRRPLHDSAALDPLQAKKVRKVPPGLPSSVYAPSPNSDDFNRESPSYPSPKPPTSMFASTFFMQDGTHNSSDLWSSSNGMSQPGFGGILGTSTSHMSQSSSYGNLHSHDRLSYPPHSVSPTDINTSLPPMSSFHRGSTSSSPYVAASHTPPINGSDSILGTRGNAAGSSQTGDALGKALASIYSPDHTSSSFPSNPSTPVGSPSPLTGTSQWPRPGGQAPSSPSYENSLHSLQSRMEDRLDRLDDAIHVLRNHAVGPSTSLPAGHSDIHSLLGPSHNAPIGSLNSNYGGSSLVASSRSASMVGTHREDSVSLNGNHSVLSSTVTTSSTDLNHKTQENYRGGLQSQSGTVVTTEIKTENKEKDENLHEPPSSDDMKSDDESSQKDIKVSSRGRTSSTNEDEDLNPEQKIEREKERRMANNARERLRVRDINEAFKELGRMCQLHLKSEKPQTKLLILHQAVAVILSLEQQVRERNLNPKAACLKRREEEKVSAVSAEPPTTLPGTHPGLSETTNPMGHM
partner: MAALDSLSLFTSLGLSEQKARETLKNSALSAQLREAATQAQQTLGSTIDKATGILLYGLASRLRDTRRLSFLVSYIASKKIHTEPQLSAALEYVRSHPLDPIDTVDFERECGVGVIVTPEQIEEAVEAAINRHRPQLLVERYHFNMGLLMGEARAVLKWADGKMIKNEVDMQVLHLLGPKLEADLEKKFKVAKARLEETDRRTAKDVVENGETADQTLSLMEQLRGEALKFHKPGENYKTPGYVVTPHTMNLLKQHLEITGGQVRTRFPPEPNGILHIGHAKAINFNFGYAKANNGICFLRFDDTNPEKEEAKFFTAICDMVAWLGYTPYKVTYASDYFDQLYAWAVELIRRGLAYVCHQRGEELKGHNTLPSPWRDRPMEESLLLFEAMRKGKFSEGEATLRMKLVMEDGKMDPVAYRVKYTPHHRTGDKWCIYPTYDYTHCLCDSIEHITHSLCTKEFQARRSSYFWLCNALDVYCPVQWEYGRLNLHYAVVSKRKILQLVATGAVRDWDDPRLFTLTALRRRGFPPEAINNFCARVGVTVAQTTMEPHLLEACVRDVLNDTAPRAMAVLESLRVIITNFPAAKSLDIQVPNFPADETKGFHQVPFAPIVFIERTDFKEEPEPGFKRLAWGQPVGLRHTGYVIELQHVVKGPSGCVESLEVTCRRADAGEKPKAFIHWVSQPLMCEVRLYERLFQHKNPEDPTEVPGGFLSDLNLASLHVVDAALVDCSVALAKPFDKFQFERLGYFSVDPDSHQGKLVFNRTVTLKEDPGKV
B2: UPF0688 protein C1orf174 (Homo sapiens), Q8IYL3 (parent)
chain: MRSRKLTGAVRSSARLKARSCSAARLASAQEVAGSTSAKTACLTSSSHKATDTRTSKKFKCDKGHLVKSELQKLVPKNDSASLPKVTPETPCENEFAEGSALLPGSEAGVSVQQGAASLPLGGCRVVSDSRLAKTRDGLSVPKHSAGSGAEESNSSSTVQKQNEPGLQTEDVQKPPLQMDNSVFLDDDSNQPMPVSRFFGNVELMQDLPPASSSCPSMSRREFRKMHFRAKDDDDDDDDDAEM
B3: UPF0462 protein C4orf33 (Homo sapiens), Q8N1A6 (parent)
chain: MDFKIEHTWDGFPVKHEPVFIRLNPGDRGVMMDISAPFFRDPPAPLGEPGKPFNELWDYEVVEAFFLNDITEQYLEVELCPHGQHLVLLLSGRRNVWKQELPLSFRMSRGETKWEGKAYLPWSYFPPNVTKFNSFAIHGSKDKRSYEALYPVPQHELQQGQKPDFHCLEYFKSFNFNTLLGEEWKQPESDLWLIEKCDI

Variants of: B1
Details: with syq_human QARS1, P47897

Effect of a mutation on the interaction, with no effect:
L483R
D565V
G300S
I11M
A458V
N479S

Variants of: B2
Details: with ikzf1_human IKZF1, Q13422
Chain of ikzf1_human IKZF1, Q13422 (Q13422 whole entry): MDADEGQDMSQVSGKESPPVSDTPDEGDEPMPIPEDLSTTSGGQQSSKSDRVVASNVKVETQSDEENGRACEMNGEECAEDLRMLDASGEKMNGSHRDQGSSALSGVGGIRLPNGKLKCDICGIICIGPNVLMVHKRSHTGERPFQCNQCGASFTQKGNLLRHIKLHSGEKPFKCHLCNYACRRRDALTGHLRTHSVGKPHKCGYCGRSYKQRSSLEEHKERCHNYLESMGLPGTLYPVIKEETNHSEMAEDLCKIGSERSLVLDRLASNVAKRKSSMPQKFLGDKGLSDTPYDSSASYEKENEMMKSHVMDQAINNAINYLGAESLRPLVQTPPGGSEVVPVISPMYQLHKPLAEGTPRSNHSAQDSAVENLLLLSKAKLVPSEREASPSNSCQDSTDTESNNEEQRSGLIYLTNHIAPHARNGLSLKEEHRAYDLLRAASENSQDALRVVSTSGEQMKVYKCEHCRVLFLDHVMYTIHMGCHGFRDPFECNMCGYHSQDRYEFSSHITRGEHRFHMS

Effect of a mutation on the interaction, with no effect:
V195M
S82A
R131C
A81T

Variants of: B3
Details: with vac14_human VAC14, Q08AM6
Chain of vac14_human VAC14, Q08AM6 (Q08AM6 whole entry): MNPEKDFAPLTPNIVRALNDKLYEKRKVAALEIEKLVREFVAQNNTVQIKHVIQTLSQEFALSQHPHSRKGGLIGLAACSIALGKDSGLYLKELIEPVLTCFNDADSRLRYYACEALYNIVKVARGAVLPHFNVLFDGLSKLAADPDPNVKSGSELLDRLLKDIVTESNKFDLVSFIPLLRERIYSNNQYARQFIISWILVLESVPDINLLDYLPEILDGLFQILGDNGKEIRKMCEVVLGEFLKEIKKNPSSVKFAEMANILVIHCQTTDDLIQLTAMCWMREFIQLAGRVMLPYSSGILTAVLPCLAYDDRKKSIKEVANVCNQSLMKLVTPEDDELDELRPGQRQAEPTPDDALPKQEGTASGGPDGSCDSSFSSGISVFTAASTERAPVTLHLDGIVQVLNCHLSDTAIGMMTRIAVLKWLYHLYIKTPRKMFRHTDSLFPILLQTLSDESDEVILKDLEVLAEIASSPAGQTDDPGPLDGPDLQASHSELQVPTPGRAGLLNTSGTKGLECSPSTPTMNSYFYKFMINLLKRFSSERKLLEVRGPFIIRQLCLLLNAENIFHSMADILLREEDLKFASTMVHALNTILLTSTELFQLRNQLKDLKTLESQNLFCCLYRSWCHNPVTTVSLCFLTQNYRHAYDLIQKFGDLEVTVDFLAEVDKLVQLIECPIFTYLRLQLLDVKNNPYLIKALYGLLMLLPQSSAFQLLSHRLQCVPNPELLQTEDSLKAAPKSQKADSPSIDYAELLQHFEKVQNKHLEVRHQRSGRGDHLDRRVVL

Effect of a mutation on the interaction, with no effect:
MDFKIEHTWDGFPVKHEPVFIRLNPGDRGVMMDISAPFFRDPPAPLGEPGKPFNELWDYEVVEAFFLNDITEQYLEVELCPHGQHLVLLLSGRRNVWKQELPLSFRMSRGETKWEGKAYLPWSYFPPNVTKFNSFAIHGSKDKRSYEALYPVPQHELQQGQKPDFRCLEYFKSFNFNTLLGEEWKQPESDLWLIEKCDI [H166R]
